Laboratory results published in paper PMC11892609.

B1: WT mTMIE-HA-Avi [mouse] / Fyn-mTMC2-mCherry [mouse] (parent)
chain 1: QLVEPSTAPPKPKPPPLTKETVVFWDMRLWHVVGIFSLFVLSIIITLCCVFNCRVPRTRKEIEARYLQRKAAKMYTDKLETVPPLNELTEIPGEDKKKKKKDSVDTVAIKVEEDEKNEAKKKGEK
chain 2: MSPQLKSLDEEGDKSARRPTRKQTSRAACPQDGHRAQSSRKDPAKGSPRPGSSRKKQMEHGSYHKGLQGQKPRKVERSLQGRKKDRRTSLKEQRASPKKEREALRKEAGKQLRKPRSTSLGSSVSTGDSLSEEELAQILEQVEEKKKLITTVRNKPWPMAKKLRELREAQAFVEKYEGALGKGKGKHLYAYRMMMAKKWVKFKRDFDNFKTQCIPWEMKIKDIESHFGSSVASYFIFLRWMYGVNLVLFGLIFGLVIIPEVLMGMPYGSIPRKTVPRAEEERAMDFSVLWDFEGYIKYSALFYGYYNNQRTIGWLRYRLPMAYFMVGVSVFGYSLMIVIRSMASNTQGSTSEGDSDSFTFSFKMFTSWDYLIGNSETADNKYVSITTSFKESIVDEQESNKEGNIHLTRFLRVLANFLILCCLCGSGYLIYFVVKRSQEFSKMQNVSWYERNEVEIVMSLLGMFCPPLFETIAALENYHPRTGLKWQLGRIFALFLGNLYTFLLALMDDVHLKLSNEEKIKNITHWTLFNYYNSSGGNESVPRPPPHPADVPRGSCWETAVGIEFMRLTVSDMLVTYLTILVGDFLRACFVRFMNHCWCWDLEAGFPSYAEFDISGNVLGLIFNQGMIWMGSFYAPGLVGINVLRLLTSMYFQCWAVMSSNVPHERVFKASRSNNFYMGLLLLVLFLSLLPVAYTVMSLPPSFDCGPFSGKNRMYDVLHETIENDFPKFLGKIFAFLANPGLIIPAILLMFLAIYYLNSVSKSLSRANAQLRKKIQALREVEKNHKSIKGKAIVTYSEDTIKNSSKNATQIHLTKEEPTSHSSSQIQTLDKKAQGPHTSSTEGGASPSTSWHHVGSQPPRGRRDSGQPQSQTYTGRSPSGKRTQRPHN

Variants of: B1
Experiment: pull-down with NeutrAvidin beads, western blot quantification
Details: PK-HEK293T cells co-expressing Fyn-mTMC2-mCherry and mTMIE-HA-Avi, three experiments, parent: 1, read off a plot

Row | ratio to parent | Variant
1 | 1.7 | chain 1 C48S C49S
